Data as given in IntAct's records for PubMed 17803994.

B1: Neutrophil cytosol factor 4 (Homo sapiens), Q15080 (parent)
chain: MAVAQQLRAESDFEQLPDDVAISANIADIEEKRGFTSHFVFVIEVKTKGGSKYLIYRRYRQFHALQSKLEERFGPDSKSSALACTLPTLPAKVYVGVKQEIAEMRIPALNAYMKSLLSLPVWVLMDEDVRIFFYQSPYDSEQVPQALRRLRPRTRKVKSVSPQGNSVDRMAAPRAEALFDFTGNSKLELNFKAGDVIFLLSRINKDWLEGTVRGATGIFPLSFVKILKDFPEEDDPTNWLRCYYYEDTISTIKDIAVEEDLSSTPLLKDLLELTRREFQREDIALNYRDAEGDLVRLLSDEDVALMVRQARGLPSQKRLFPWKLHITQKDNYRVYNTMP
partner: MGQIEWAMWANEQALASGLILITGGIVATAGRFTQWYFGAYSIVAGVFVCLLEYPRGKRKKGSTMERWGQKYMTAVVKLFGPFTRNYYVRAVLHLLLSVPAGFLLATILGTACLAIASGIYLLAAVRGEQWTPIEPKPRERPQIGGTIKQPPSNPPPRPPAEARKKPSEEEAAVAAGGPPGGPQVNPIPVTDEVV
B2: Cytochrome b-245 light chain (Homo sapiens), P13498 (parent)
chain: B1 partner
B3: Cytochrome b-245 light chain (Homo sapiens), P13498 (parent)
chain: B1 partner
partner: B1 chain

Variants of: B1
Conditions: with cy24a_human CYBA

**Q.** Which “effect of a mutation on the interaction” value does the source give for W207R here?
**A.** Its value is “decreasing interaction”.

Variants of: B2
Conditions: with ncf1_human NCF1, P14598
Chain of ncf1_human NCF1, P14598 (P14598 whole entry): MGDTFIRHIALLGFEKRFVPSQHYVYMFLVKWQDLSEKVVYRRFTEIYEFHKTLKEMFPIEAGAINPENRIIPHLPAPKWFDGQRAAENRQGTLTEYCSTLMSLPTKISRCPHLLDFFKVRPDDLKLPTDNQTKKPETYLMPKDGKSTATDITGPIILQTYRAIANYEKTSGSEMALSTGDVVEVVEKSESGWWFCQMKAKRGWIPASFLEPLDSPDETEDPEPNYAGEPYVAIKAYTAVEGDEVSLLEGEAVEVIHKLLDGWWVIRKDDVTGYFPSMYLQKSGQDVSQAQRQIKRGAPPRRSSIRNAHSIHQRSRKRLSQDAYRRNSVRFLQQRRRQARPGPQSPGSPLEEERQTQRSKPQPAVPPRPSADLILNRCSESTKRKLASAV

**Q.** How did the “effect of a mutation on the interaction” value turn out when P156Q was run?
**A.** The value was “decreasing interaction”.

Variants of: B3
Conditions: with ncf4_human NCF4, Q15080

**Q.** P156Q was tested. Which “effect of a mutation on the interaction” value did it give?
**A.** The value was “decreasing interaction”.
